{
  "source": "a protein production outcome set (Wang et al. 2014)",
  "data": [
    {"experiment": "label from the status in PepcDB records", "values": [
      {"sequence": "MNTLKKAFEILDFIVKNPGDVSVSEIAEKFNMSVSNAYKYMVVLEEKGFVLRKKDKRYVPGYKLIEYGSFVLRRFNIRDIAHDHLVDIMKRTGETVHLILKDGFEGVYIDKVEGEQSIPMVSRLGMKVDLYSTASGKSILAFVPEKELKEYLKIVELKPKTPNTITNPRVLKRELEKIRKRGYAVDNEENEIGIMCVGVPIFDHNGYPVAGVSISGVARKFTEEKIEEYSDVLKEKAEEISRKLGY", "protein production": "not failed"},
      {"sequence": "MNTLRTAMLLAAMTALFMGVGFLIGGSGGMMIALLIAAGTNLFSYWNADKMVLSMNRAVEVDEKNAPEYYAIVQALAKQAGLPMPRTYLIDNPQPNAFATGRNPQNAAVAASTGLLQRLTHEEVAAVMAHELAHVQHRDTLTMTIVATFAGAISMLGNFAFFLGGNRDNNPFGFVGVLAAMIVAPFAAMIVQMAVSRTREYEADRRGAEICGHPLWLASALDKIARGAERIPNPDAERNPAMAHLFIINPLHGERMDNLFSTHPSTDNRIAALQEMAQQMAGGTQAAPRPTPRQAGEQQPSGPWGQAPQAEQPAEPERPKANPWGRNPTGPKGRWS", "protein production": "failed"},
      {"sequence": "MNTRPFYFGLIFIAIIAILANYLGNTDFSHHYHISALIIAILLGMAIGNTIYPQFSTQVEKGVLFAKGALLRTGIVLYGFRLTFGDIADVGLNAVVTDAIMLISTFFFTALLGIRYLKMDKQLVYLTGAGCSICGAAAVMAAEPVTKAESHKVSVAIAVVVIFGTLAIFTYPLFYTWSQHLINAHQFGIYVGSSVHEVAQVYAIGENIDPIVANTAVISKMIRVMMLAPFLLMLSWLLTRSNGVSENTSHKITIPWFAVLFIGVAIFNSFDLLPKELVKLFVEIDSFLLISSMAALGLTTQASAIKKAGLKPFVLGILTYLWLVVGGFLVNYGISKLI", "protein production": "failed"},
      {"sequence": "MNTVCTACMATNRLPEERIDDGAKCGRCGHSLFDGEVINATAETLDKLLQDDLPMVIDFWAPWCGPCRSFAPIFAETAAERAGKVRFVKVNTEAEPALSTRFRIRSIPTIMLYRNGKMIDMLNGAVPKAPFDNWLDEQLSRDPNS", "protein production": "not failed"},
      {"sequence": "MNVDVLIGEILTLSMMAFALGMDAFSVGLGMGMAKLKRNQVFQIGVIIGLFHVIMPLGGMIAGQFLSGALGALAGYIGGALLLVLGIQMIVASFNKSGEQIISPHGFGLFVFAVGVSLDSFSVGLSLGLYGTKPILTIFLFGLFSMVLTWAGLLLGKKVQTWLGAYSEALGGAILLSFGLKLLLPI", "protein production": "failed"},
      {"sequence": "MNVFARSSVLAAEMIDVFDRTHTEKELVFQSKELCRDFIHSRITREGLSWSKVELDLPEPRGVLVDVSVVLLKLGDELECMRPYVYRNIAKQLNISVSVEAVVSDAFLSVATEVIAMGITWGKVVAIYAVAAGLAVDCVRLGHPVMVHTIVDSLGEFVRRSLVPWLKKRGGWVDILKCVVNMDSRAHVHWLSTAVLTWREFIKTMYVYLTK", "protein production": "failed"},
      {"sequence": "MNVINETANVLKLETGSVTSAKGFSAVGIHTGVKRKRKDLGAIVCEVPASSAAVYTLNKVQAAPLKVTQESIAVEGKLQAMIVNSGIANACTGKRGLDDAYTMRAVGAETFHIPEHYVAVTSTGVIGEFLPMDVITNGIRQLKPEATIEGAHAFNEAILTTDTVEKHTCYQTIVNGKTVTVGGVAKGSGMIHPNMATMLSFVTTDANIDHGHLQGALSAITNETFNRITVDGDTSTNDMVVVMASGLAENEALTPEHPDWANFYKALQLACEDLAKQIARDGEGATKLIEVEVTGAANDQEAGMVAKQIVGSDLVKTAIYGADANWGRIICAIGYSGCEVNQETIDIAIGPIVTLKQSEPTGFSEEEATAYLKEADPVKISVNLHIGNGTGKAWGCDLTYDYVRINAGYRT", "protein production": "not failed"},
      {"sequence": "MNVIYPLAVPKGRRLSCEVCEAPAERMCTACTVTYYCGPVHQKADWDSIHAKICQLLIPLRTTMPFYNSEEERQHGLQQLQRRQKHLIEFCYTVAQKYLFEGRHEDAVPAALHSLRFRMNVHGLSSVELVPAYLLLAEASLGLGRIVQAEEYLSQAQWTVLKSTDCSNATHSLLHRNLGLLYIAKKNLDEARYHLANDIYFASCAYGTEDIRTSGGYFHLANIFYGLKKMELADTLYTKVSEIWYTYLNSHYQALLEARSQQTDLLGKQFVNDTGLDEAQEAEAIRILTSTLIIQESTSTKAPQKSILILKTLSILYYLMLECSKAKEYAMKALSLAETYVSEEEQRFIQELLSVISAEEKQP", "protein production": "failed"},
      {"sequence": "MNVLRRFHAWRNQAPLWWWVGLRMSALAVVTMMVIAFGMWCYFNLRYSLILSNVPAEPRAEISQLIEQPRANQARLWELFQRYYDIENFLPGLANPDWWMLGAMMTISVPVILFCGLLASRPLSRQFSQVAFAAHRVSDGDFGARAQVVRGAPDELTALADDFNTMSGRLQQYERELRDSSAMLAHELRTPLNAAMGRVQGMLDDVFPREPEQLRLVHRQLEQINRLIGDLHLVSLARAGQLVLEPESVELRELVAERIEWAGPALREAQMTIHYPTHPALRLHADRHRLGQVLSILIDNALRYAAAGKLLEIEVRRDGTGVQLTVGDRGPGVAPAQLPHLLDRFWRADSSRARHSGGSGLGLAIASAICQAHDGQLVVSNRPGGGLLASVQLPLGR", "protein production": "failed"},
      {"sequence": "MNVLSLGSSSGVVWGRVPITAPAGAATGVTSRADAHSQMRRYAQTGPTAKLSSAPMTTMWGAPLHRRWRGSRLRDPRQAKFLTLASLKWVLANRAYTPWYLVRYWRLLRFKLANPHIITRGMVFLGKGVEIHATPELAQLEIGRWVHIGDKNTIRAHEGSLRFGDKVVLGRDNVINTYLDIEIGDSVLMADWCYICDFDHRMDDITLPIKDQGIIKSPVRIGPDTWIGVKVSVLRGTTIGRGCVLGSHAVVRGAIPDYSIAVGAPAKVVKNRQLSWEASAAQRAELAAALADIERKKAAR", "protein production": "failed"},
      {"sequence": "MNVPILPTISTSCIVISAILVAIGWALIWKRQVHKHKNIMLWAAFFALTFFIIYAARTIFIGNTAFGGPSSIKVYYTIFLVFHIILATVGGVLGLIQIILAFKDKLHIHRKIGPWASIIWFFTAITGVAVYVLLYVLYPGGETTSLLKATLGL", "protein production": "failed"},
      {"sequence": "MNWSIPNILTVLRLLAAPGVAVMFLYFHRPWADWFALTLFILAAVTDFFDGYLARLWKQESKFGAMLDPIADKAMVVIALVIITGYSGMNPWLILPVTLILFREVFVSGLREFLGAKASLLKVTKLAKWKTTAQMVAIAILFLGTGLEHLEGIARQGMTWEQYARAVSAGEADPIRSCGMHGCSSYATWLGLALIWIAAALTFITGWDYFRKALPYLKDEK", "protein production": "not failed"},
      {"sequence": "MNYAFVVQARLGSTRLPGKILKPFYGNQSILDLMVHKLSAISNIPVIIATTNSVINEPIEKKALALGVKCFRGEENDVLKRFIDVAEYFDIQGIFRICSDNPFLDVHAARQLVEIAMKSCNDYISFDIDGTPSIKTHFGFWGEFVTLDALKRVIGFTDDLLYREHVTNYIYSHPELFNIQWISGSPVVSKHHNIRLTIDTLEDFSVAQRIYRDLQEKRVEISIEVIVDYVRRHAEYIQLMKQQIKKNSKLEHHHHHH", "protein production": "not failed"},
      {"sequence": "MNYDDPKKKVGRNIKRLRLKAGIKSQAALAELCGWKSQSRVGNYEAGTRAVSAIDAETLAKVLNVTPAEILYGENNKDDDFVSMPSAQYSSGPYEEEDPFQLFKPKQELQNAEWHAGFELWDGDTPLRDDEVALPFYREVELAAGSGSTFVQENGGCKLRFAKSTLKKSRVEPSNAACVTVSGNSMLPVLRHGTTVGVDTSKKSIIDGEMYAIDHDGMLRVKMLYRTPGGGIRIKSYNNDEFPDEFIPPEKASDIKIIGWVFWWSVLNVWNN", "protein production": "failed"},
      {"sequence": "MNYDMSSYFEDPEFKEALAKYEGMVENHTPAYFEADELIDIAEYYTLKGRHKDADKAIDLTLQLHPENTDALVFRIRSLMLQNKKEEAKVVAQLIANSTDRECRFLQADMLMEEDRIEEAEEIFKQLVMDEEYEVDTLLDIIQDYTNANQEEYAGQWVDCLFAHSDMQTLPKTNQRLRDVLCDYYSTFNKPDLAIPYLNMTLNEYPYSIEHWNELGKCHLQQCQYEEANEALDFALAIDDENTDSLTLKAFGYHQAGNLKESCDYYLRLANVSKNKTKAYLALAQIYLEMRDHASAISYIEKLINRKSGLTDYELAELYSDTALCHAYLGHTENGYKYINQALELNEHDAEIRIAAGRFFTIEAQKSDISEEEQENNLRNAEHQFTRALEFTPKEERFDVLFKIGSLYFDEHNFEYANQYFELINKEFPEDADATYFFLAYGYYHQQESASFMHYLAKIRKEIPDMYATMGTGDTILMTDTYFNEALRAIKEDVSTGKINLNKYL", "protein production": "failed"},
      {"sequence": "MNYECLIGVLSCLLVALPKGNCHSISGLNSTLNLPEIRGDQFLYFGFGSNMLIKRIHIQNPSAVRIGPALLPDYRLDFALESAGWSGSVATIVPTQGDHVWGTLWKIDLSNLPDIDSQEGVSQGIYEPRTVYVKLHGESESTPARAYLLTKQPESNLYELPKDSIPLSRQPSKTYLQCLVKGAIESSVPEDYVQRLRSIKHNGQVNSYLERKLELGGVTL", "protein production": "failed"},
      {"sequence": "MNYEIIDCIDSGTEYCPCHLAESGNCILCSQLNGKDFCDCVNWKGVCIYQEYTWNHNKAKKERSECICKIIKREEIDNNLIVLTIFIRKKLAEDLLYPGSYVFLRPTKSSRYYSSPISIMEASSDENIIKVIIEVKGIKTKSINELKEKDDIVLKGPYWNGVLGLKNIHSAKEGISLIIARGIGEAPIVPIMKKLYSNGNKVVVIADRGKFKANLIDKYLEEFSSETYNFNTLNKDGELPEDFKDFLLNFIRYNKVNLIHISGPNILTSKILDVVDEDIKISCSNNAKMCCGEGICGACSNIYDDDKMKRMCKVQIDPRYLFKGLRSI", "protein production": "failed"},
      {"sequence": "MNYFPDEVIEHVFDFVASHKDRNSISLVCKSWHKIERFSRKEVFIGNCYAINPERLIRRFPCLKSLTLKGKPHFADFNLVPHEWGGFVHPWIEALARSRVGLEELRLKRMVVTDESLDLLSRSFANFKSLVLVSCEGFTTDGLASIAANCRHLRELDLQENEIDDHRGQWLNCFPDSCTTLMSLNFACLKGETNVAALERLVARSPNLKSLKLNRAVPLDALARLMSCAPQLVDLGVGSYENEPDPESFAKLMTAIKKYTSLRSLSGFLEVAPLCLPAFYPICQNLISLNLSYAAEIQGNHLIKLIQLCKRLQRLWILDSIGDKGLAVVAATCKELQELRVFPSDVHGEEDNNASVTEVGLVAISAGCPKLHSILYFCKQMTNAALIAVAKNCPNFIRFRLCILEPHKPDHITFQSLDEGFGAIVQACKGLRRLSVSGLLTDQVFLYIGMYAEQLEMLSIAFAGDTDKGMLYVLNGCKKMRKLEIRDSPFGNAALLADVGRYETMRSLWMSSCEVTLGGCKRLAQNSPRLNVEIINENENNGMEQNEEDEREKVDKLYLYRTVVGTRKDAPPYVRIL", "protein production": "failed"},
      {"sequence": "MNYKELLEFNDYAMDLTIRMAHHSTAIENNPLSLAETISILTTEYIPREMPQRAFFEVKNYQNMLFFLLENLNKGQSVDSFFIRELHGILMNFLLPNKGAFKTTDNTILGASFETTPIFKCLWL", "protein production": "failed"},
      {"sequence": "MNYKLTLHPGSNPVEEFTSIPHGVTSLDLSLNNLYSISTVELIQAFANTPASVTSLNLSGNSLGFKNSDELVQILAAIPANVTSLNLSGNFLSYKSSDELVKTLAAIPFTITVLDLGWNDFSSKSSSEFKQAFSNLPASITSLNLRGNDLGIKSSDELIQILAAIPANVNSLNLRGNNLASKNCAELAKFLASIPASVTSLDLSANLLGLKSYAELAYIFSSIPNHVVSLNLCLNCLHGPSLENLKLLKDSLKHLQTVYLDYDIVKNMSKEQCKALGAAFPNIQKIILVDKNGKEIHPSHSIPISNLIRELSGKADVPSLLNQCLIFAQKHQTNIEDLNIPDELRESIQTCKPLLEHHHHHH", "protein production": "not failed"},
      {"sequence": "MNYSIRLFKIMGIPIELHITFILFLVVIIGLSIMNNSIFWAVLFILLFVSVVLHELGHSYVAKKYGVKIEKILLLPIGGVAMMDKIPKEGELRIGIAGPLVSFIIGIVLLIVSQFFDININGYPLLYTLSLLNLMLGGFNLIPAFPMDGGRILRAILSKKYGYLKSTKIAANIGKSLALIMLLFGLLSMNIILILVSLFVYFGAEQESRVVEVETIFKNIKAKDIMTPNPVYVTPDMSIEEFLDFMLKHKYFGYPVVENGKLVGCIGIGNIHKKEGTVRDYMEKPVVVSEDTDIKEILRKMANTDRVFVVEGGKLKGIISKTDILRAMSILELKEELKD", "protein production": "failed"}
    ]}
  ]
}
